Test results from the supplement of paper PMC7125110.
± gives the standard error. Variants at the floor of the assay were thinned out.

B1: glmS ribozyme (parent)
chain: AUAAAAGCGCCAGAACUACAGAAAUGUAGUUGACGAGGAGGAGGUUUAUCGAAUUUUCGGCGGAUGCCUCCAAA

Tests used:
Conditions in all cases: with glucosamine-6-phosphate
glucosamine-6-phosphate [1] = variants of: B1; test: self-cleavage kobs at 640 uM GlcN6P; higher = faster cleavage; RNA array
In short: (§1)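 The measurements used barcoded ribozyme variants on sequenced MiSeq chips, transcribed in situ by E. coli RNA polymerase and tracked at 37 °C with a hybridised Cy3 probe. Glucosamine-6-phosphate, 40 μM to 10 mM in HEPES/KCl/Mg(OAc)2 buffer, was flowed in while tiles were imaged over ~14 h. Baseline-normalised signals, also normalised to non-cleaving reference variants, gave per-tile medians that were fit to one- or two-exponential decays for kobs. kcat and KM resulted from weighted Michaelis–Menten fits across concentrations.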

glucosamine-6-phosphate [2] = variants of: B1; test: self-cleavage kobs at 2500 uM GlcN6P; higher = faster cleavage; RNA array
In short: as §1

glucosamine-6-phosphate [3] = variants of: B1; test: self-cleavage kobs at 10000 uM GlcN6P; higher = faster cleavage; RNA array
In short: as §1

| Variant | self-cleavage kobs at 640 uM GlcN6P (glucosamine-6-phosphate [1]) [s⁻¹] | self-cleavage kobs at 2500 uM GlcN6P (glucosamine-6-phosphate [2]) [s⁻¹] | self-cleavage kobs at 10000 uM GlcN6P (glucosamine-6-phosphate [3]) [s⁻¹] |
| --- | --- | --- | --- |
| A39U A52C A53G A64U | < 1e-05 | < 1e-05 |  |
| G41C A42C C50G | < 1e-05 |  |  |
| U49C A52U G62U | < 1e-05 |  |  |
| A42G G43A C67U C68U | 0.000241 ± 0.00011 |  | 0.000713 ± 0.00018 |
| U47A A48U C70U | 0.000162 ± 5.1e-05 | 0.000141 ± 3.3e-05 | 0.000573 ± 0.00021 |
| G37C G40A C50G | < 1e-05 | < 1e-05 |  |
| G40U G43U A48C U56A U65A | < 1e-05 |  |  |
| A48C U55G | 0.000142 ± 3.3e-05 | 0.00018 ± 7e-05 |  |
| U46G G62C | < 1e-05 |  | < 1e-05 |
| A39G U45G C71U | 0.00169 ± 0.0004 | 0.0041 ± 0.0017 |  |
| C50G A64U C70U | 0.000173 ± 5.1e-05 | 0.000192 ± 4.3e-05 |  |
| G44C U56C G59U | < 1e-05 | < 1e-05 |  |
| G41A U45C C70A | 5.47e-05 ± 1.8e-05 |  |  |
| U47A C50G C67U C71A | 0.000221 ± 0.00011 |  | 0.000134 ± 2.8e-05 |
| G40A G43U C50A | < 1e-05 |  |  |
| C58A C70A C71A | 8.13e-05 ± 2.5e-05 | 0.000492 ± 0.00012 |  |
| G51U G63C G66U U69A C70A | < 1e-05 |  |  |
| U45G U46C G59U U65G U69G | < 1e-05 | < 1e-05 |  |
| G38A G44A G51U U54G | < 1e-05 |  |  |
| A48C C70U C71G | < 1e-05 |  |  |
| U45G U65G G66U U69C | 0.000332 ± 7.1e-05 | 0.00052 ± 0.00017 | 0.00192 ± 0.00028 |
| G43U U47C G63U | < 1e-05 | < 1e-05 |  |

| Variant | self-cleavage kobs at 640 uM GlcN6P (glucosamine-6-phosphate [1]) [s⁻¹] | self-cleavage kobs at 2500 uM GlcN6P (glucosamine-6-phosphate [2]) [s⁻¹] | self-cleavage kobs at 10000 uM GlcN6P (glucosamine-6-phosphate [3]) [s⁻¹] |
| --- | --- | --- | --- |
| G41A A53U U56G G60A | < 1e-05 | < 1e-05 |  |
| G59U C70G | 0.000548 ± 0.00023 |  |  |
| A52U C70G C71A | 8.24e-05 ± 2.8e-05 |  |  |
| U49A G63U | < 1e-05 |  |  |
| G44C U47G | < 1e-05 |  |  |
| C50G G62A C68G | 0.000159 ± 4.6e-05 |  | 0.000111 ± 2.9e-05 |
| A52C A53U C67U C68U | 6.36e-05 ± 3e-05 | 9.26e-05 ± 4.1e-05 |  |
| A52C G59A U65A | < 1e-05 | < 1e-05 |  |
| C50A C58U C67G | 8.03e-05 ± 3.9e-05 |  |  |
| G37U G41A G63U A64G | < 1e-05 |  |  |
| G40A A48U U56A G59U C68A | < 1e-05 | < 1e-05 |  |
| G38C U57G | < 1e-05 |  |  |
| G44U C58A G59U | < 1e-05 | < 1e-05 |  |
| A42C U46G C71G | < 1e-05 | < 1e-05 |  |
| U45C U46G U57A | < 1e-05 |  |  |
| A52U C68G | 0.000375 ± 0.00018 | 4.62e-05 ± 8.4e-06 | 1.85e-05 ± 7.8e-06 |
| A53C U55G C71G | 0.000116 ± 3.1e-05 |  |  |
| C50A G60C C68U | 4.56e-05 ± 2.1e-05 |  |  |
| C50G A52G G60U C71U | 0.000392 ± 0.00013 | 6.62e-05 ± 2.9e-05 |  |
| A52G C58G U65C | < 1e-05 |  |  |
| A36U G44A G62A C71G | < 1e-05 | < 1e-05 |  |
| U45C U69G | 8.34e-05 ± 3.9e-05 |  |  |

| Variant | self-cleavage kobs at 640 uM GlcN6P (glucosamine-6-phosphate [1]) [s⁻¹] | self-cleavage kobs at 2500 uM GlcN6P (glucosamine-6-phosphate [2]) [s⁻¹] | self-cleavage kobs at 10000 uM GlcN6P (glucosamine-6-phosphate [3]) [s⁻¹] |
| --- | --- | --- | --- |
| U45G A52C U55C C70G | < 1e-05 | < 1e-05 |  |
| G51A A53G C71A | < 1e-05 |  |  |
| G41U G51C U69C | < 1e-05 | < 1e-05 |  |
| U46G U49C U55G | < 1e-05 | < 1e-05 |  |
| G40U G43U U49C | < 1e-05 | < 1e-05 |  |
| G44A C50U G63U | < 1e-05 |  |  |
| G60A C61U C70U | < 1e-05 | < 1e-05 |  |
| A6C G13A G38U U57G A64U |  | < 1e-05 |  |
| G43A U57G U69A | < 1e-05 |  |  |
| U46G C50G C71A | 8.98e-05 ± 3.3e-05 |  |  |
| C58G C68U C71G | 5.51e-05 ± 2.4e-05 |  |  |
| U46G U55C C67A | 8.32e-05 ± 1.9e-05 | 6.57e-05 ± 1.5e-05 |  |
| U45G U49G | 0.000102 ± 1.6e-05 | 0.000422 ± 8.4e-05 |  |
| G44U A53G U65C | < 1e-05 |  |  |
| A6C G7C G41A |  | < 1e-05 |  |
| A53G U57C | 0.000146 ± 4.6e-05 | 0.000159 ± 4.1e-05 | 0.0005 ± 8.7e-05 |
| G44U U47C C71U | < 1e-05 | < 1e-05 |  |
| U47G G62U | < 1e-05 |  |  |
| G38A G60A | < 1e-05 | < 1e-05 |  |
| A42G C68G | 7.72e-05 ± 2.8e-05 | 0.000308 ± 7.3e-05 | 0.000128 ± 2.2e-05 |
| U47A C61U U69G | 0.00233 ± 0.0008 |  |  |
